Assay results published in patent US20250084176A1 (F STAR BETA, published 2025).
Values belong to the binder of their own block, whether it stands above or below them.

Tests used:
[1] = target: T1, mouse CD137 ligand on DO11.10 cells (mouse, UniProt P41274 1-309); experiment: flow cytometry, detection with anti mouse Fc fragment antibody
T1 construct: whole, on cells
T1 sequence (looked up): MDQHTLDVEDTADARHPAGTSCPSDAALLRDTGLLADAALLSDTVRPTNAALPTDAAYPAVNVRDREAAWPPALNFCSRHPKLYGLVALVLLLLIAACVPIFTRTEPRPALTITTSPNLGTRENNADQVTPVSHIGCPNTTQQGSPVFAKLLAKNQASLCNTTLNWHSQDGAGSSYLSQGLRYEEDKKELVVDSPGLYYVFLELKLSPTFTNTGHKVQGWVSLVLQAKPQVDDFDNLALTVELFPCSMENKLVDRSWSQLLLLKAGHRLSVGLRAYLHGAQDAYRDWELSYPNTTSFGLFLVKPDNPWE
Experimental: In more detail, materials from the same production lot were mixed together and analysed for stability and purity by size-exclusion high-performance liquid chromatography (SE-HPLC), SDS polyacrylamide gel electrophoresis (SDS-PAGE), and size-exclusion chromatography with multi-angle light scattering (SEC-MALS). […] Cells were incubated with the CD137 antigens for 1 hour, and then a fluorescently-labelled anti mouse Fc fragment antibody was used to detect cell binding.

[2] = target: T2, mouse CD137, full length, on cells (mouse, UniProt P20334 24-256); experiment: cell-based or functional assay
[3] = target: T2, mouse CD137, full length, on cells; experiment: cell-based or functional assay; remark: listed apart in the source
[4] = target: T3, mouse GITR (mouse, UniProt O35714 20-153, limits assumed, biotinylated (EZ-Link Sulfo-NHS-SS-Biotin)); experiment: BLI (Octet QKe), biotinylated receptor on streptavidin sensors
T3 sequence (looked up): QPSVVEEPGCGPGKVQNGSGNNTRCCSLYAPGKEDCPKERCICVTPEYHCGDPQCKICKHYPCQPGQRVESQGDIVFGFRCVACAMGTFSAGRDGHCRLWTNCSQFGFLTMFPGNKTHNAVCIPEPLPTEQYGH
Experimental: (§1) The specificity of the anti-mouse CD137 Fcabs for mouse CD137 was tested in HeID1.3 “mock” mAb² format and measured by BLI in an Octet QKe system by testing for binding of the Fcabs to other mouse TNFRSF receptors (CD40, OX40, GITR). […] Anti-mouse CD137 Fcabs in mock mAb² format were diluted 1:1 in kinetic buffer (PALL 18-1092) to a final concentration of at least 1 μM. Antigen-coated sensors were dipped into the mAb² solutions for 180 seconds followed by 180 seconds in 1× kinetic buffer. Antibodies for each of the TNFRSF receptors were used as positive controls.

[5] = target: mouse CD40 (mouse, UniProt P27512 24-193, limits assumed, biotinylated (EZ-Link Sulfo-NHS-SS-Biotin)); experiment: as above
Sequence of mouse CD40 (P27512 24-193 limits assumed): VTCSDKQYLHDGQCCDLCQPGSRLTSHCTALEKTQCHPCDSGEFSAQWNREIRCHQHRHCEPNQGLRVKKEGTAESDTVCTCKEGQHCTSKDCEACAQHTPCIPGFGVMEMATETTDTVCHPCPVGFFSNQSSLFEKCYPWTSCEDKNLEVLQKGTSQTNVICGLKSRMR
Experimental: as §1

- binding result [1]: binds
B1: mCD137-mFc-Avi (Fc fusion)
chain: VQNSCDNCQPGTFCRKYNPVCKSCPPSTFSSIGGQPNCNICRVCAGYFRFKKFCSSTHNAECECIEGFHCLGPQCTRCEKDCRPGQELTKQGCKTCSLGTFNDQNGTGVCRPWTNCSLDGRSVLKTGTTEKDVVCGPPVVSFSPSTTISVTPEGGPGGHSLQVL
modifications: one biotin on the Avi sequence of each monomer (BirA); unbiotinylated in the SPR of Example 5.6
notes: also called mouse CD137-mFc-Avi; dimeric mouse CD137; not shown: mouse IgG2a Fc domain (mIgG2a Fc)

- NF-kB luciferase reporter (HEK.FRT.luc.mCD137), Protein L crosslinked: EC50 [2]: 1.44 nM
- NF-kB luciferase reporter (HEK.FRT.luc.mCD137): fold-change in activity upon crosslinking [2]: 27 fold
- IL-2 release, mouse CD137 DO11.10 T cell activation assay, Protein L: +XL EC50 [3]: 0.39 nM
- IL-2 release, mouse CD137 DO11.10 T cell activation assay, Protein L: +XL Emax [3]: 24200 pg/mL
- binding result [4]: no binding (tested: at least 1 µM)
- binding result [5]: no binding (tested: at least 1 µM)
B2: FS22m-063/HelD1.3 (bispecific antibody, human IgG1, kappa)
heavy: QVQLQESGPGLVRPSQTLSLTCTVSGSTFSGYGVNWVRQPPGRGLEWIGMIWGDGNTDYNSALKSRVTMLVDTSKNQFSLRLSSVTAADTAVYYCARERDYRLDYWGQGSLVTVSSASTKGPSVFPLAPSSKSTSGGTAALGCLVKDYFPEPVTVSWNSGALTSGVHTFPAVLQSSGLYSLSSVVTVPSSSLGTQTYICNVNHKPSNTKVDKKVEPKSCDKTHTCPPCPAPELLGGPSVFLFPPKPKDTLMISRTPEVTCVVVDVSHEDPEVKFNWYVDGVEVHNAKTKPREEQYNSTYRVVSVLTVLHQDWLNGKEYKCKVSNKALPAPIEKTISKAKGQPREPQVYTLPPSRDEPYWSYVSLTCLVKGFYPSDIAVEWESNGQPENNYKTTPPVLDSDGSFFLYSKLTVMNYRWELGNVFSCSVMHEALHNHYTQKSLSLSPG
light: DIQMTQSPASLSASVGETVTITCRASGNIHNYLAWYQQKQGKSPQLLVYNAKTLADGVPSRFSGSGSGTQYSLKINSLQPEDFGSYYCQHFWSTPRTFGGGTKLEIKRTVAAPSVFIFPPSDEQLKSGTASVVCLLNNFYPREAKVQWKVDNALQSGNSQESVTEQDSKDSTYSLSSTLTLSKADYEKHKVYACEVTHQGLSSPVTKSFNRGEC
notes: also called FS22m-063 in HeID1.3 mock mAb^2 format
